Source: ChEMBL document CHEMBL1137660, “Molecular and biochemical characterization of the chromosome-encoded class A beta-lactamase BCL-1 from Bacillus clausii” (Antimicrob Agents Chemother, 2007)

Columns and labels:
[1] = substrate: CC1(C)S[C@@H]2[C@H](NC(=O)Cc3ccccc3)C(=O)N2[C@H]1C(=O)O; experiment: (§1) Activity of Bacillus cereus beta-lactamase BcI
[2] = substrate: CC(=O)OCC1=C(C(=O)O)N2C(=O)[C@@H](NC(=O)CCC[C@@H](N)C(=O)O)[C@H]2SC1; experiment: as §1
[3] = substrate: CO/N=C(\C(=O)N[C@@H]1C(=O)N2C(C(=O)[O-])=C(C[N+]3(C)CCCC3)CS[C@H]12)c1csc(N)n1; conditions: Shouchella clausii; NR
[4] = substrate: O=C(Cc1cccs1)N[C@@H]1C(=O)N2C(C(=O)[O-])=C(C[n+]3ccccc3)CS[C@H]12; conditions: Shouchella clausii; NR
[5] = substrate: CO/N=C(\C(=O)N[C@@H]1C(=O)N2C(C(=O)O)=C(CSc3nc(=O)c(O)nn3C)CS[C@H]12)c1csc(N)n1; conditions: Shouchella clausii; NR
[6] = substrate: CC1(C)S[C@@H]2[C@H](NC(=O)[C@H](N)c3ccc(O)cc3)C(=O)N2[C@H]1C(=O)O; conditions: Shouchella clausii; NR
[7] = substrate: C[C@H]1[C@H](NC(=O)/C(=N\OC(C)(C)C(=O)O)c2csc(N)n2)C(=O)N1S(=O)(=O)O; conditions: Shouchella clausii; NR
[8] = substrate: CC1(C)S[C@@H]2[C@H](NC(=O)Cc3ccccc3)C(=O)N2[C@H]1C(=O)O; conditions: Shouchella clausii; NR
[9] = substrate: CO/N=C(\C(=O)N[C@@H]1C(=O)N2C(C(=O)[O-])=C(C[n+]3cccc4c3CCC4)CS[C@H]12)c1csc(N)n1; conditions: Shouchella clausii; NR
[10] = substrate: CO[C@@]1(NC(=O)Cc2cccs2)C(=O)N2C(C(=O)O)=C(COC(N)=O)CS[C@@H]21; conditions: Shouchella clausii; NR
[11] = substrate: CO/N=C(\C(=O)N[C@@H]1C(=O)N2C(C(=O)O)=C(COC(N)=O)CS[C@H]12)c1ccco1; conditions: Shouchella clausii; NR
[12] = substrate: CO/N=C(\C(=O)N[C@@H]1C(=O)N2C(C(=O)O)=C(COC(C)=O)CS[C@H]12)c1csc(N)n1; conditions: Shouchella clausii; NR
[13] = substrate: CCN1CCN(C(=O)N[C@@H](C(=O)N[C@@H]2C(=O)N3[C@@H]2SC(C)(C)[C@@H]3C(=O)O)c2ccccc2)C(=O)C1=O; conditions: Shouchella clausii; NR
[14] = substrate: CO[C@@]1(NC(=O)C(C(=O)O)c2ccc(O)cc2)C(=O)N2C(C(=O)O)=C(CSc3nnnn3C)CO[C@@H]21; conditions: Shouchella clausii; NR
[15] = substrate: CC(C)(O/N=C(\C(=O)N[C@@H]1C(=O)N2C(C(=O)[O-])=C(C[n+]3ccccc3)CS[C@H]12)c1csc(N)n1)C(=O)O; conditions: Shouchella clausii; NR
[16] = substrate: CC1(C)S[C@@H]2[C@H](NC(=O)[C@H](C(=O)O)c3ccsc3)C(=O)N2[C@H]1C(=O)O; conditions: Shouchella clausii; NR
[17] = substrate: CC(=O)OCC1=C(C(=O)O)N2C(=O)[C@@H](NC(=O)Cc3cccs3)[C@H]2SC1; conditions: Shouchella clausii; NR
[18] = substrate: CO/N=C(\C(=O)N[C@@H]1C(=O)N2C(C(=O)[O-])=C(C[N+]3(C)CCCC3)CS[C@H]12)c1csc(N)n1; conditions: Shouchella clausii; NR; remark: listed apart in the source
[19] = substrate: O=C(Cc1cccs1)N[C@@H]1C(=O)N2C(C(=O)[O-])=C(C[n+]3ccccc3)CS[C@H]12; conditions: Shouchella clausii; NR; remark: listed apart in the source
[20] = substrate: CO/N=C(\C(=O)N[C@@H]1C(=O)N2C(C(=O)O)=C(CSc3nc(=O)c(O)nn3C)CS[C@H]12)c1csc(N)n1; conditions: Shouchella clausii; NR; remark: listed apart in the source
[21] = substrate: CC1(C)S[C@@H]2[C@H](NC(=O)[C@H](N)c3ccc(O)cc3)C(=O)N2[C@H]1C(=O)O; conditions: Shouchella clausii; NR; remark: listed apart in the source
[22] = substrate: CC1(C)S[C@@H]2[C@H](NC(=O)Cc3ccccc3)C(=O)N2[C@H]1C(=O)O; conditions: Shouchella clausii; NR; remark: listed apart in the source
[23] = substrate: CO/N=C(\C(=O)N[C@@H]1C(=O)N2C(C(=O)[O-])=C(C[n+]3cccc4c3CCC4)CS[C@H]12)c1csc(N)n1; conditions: Shouchella clausii; NR; remark: listed apart in the source
[24] = substrate: CO/N=C(\C(=O)N[C@@H]1C(=O)N2C(C(=O)O)=C(COC(N)=O)CS[C@H]12)c1ccco1; conditions: Shouchella clausii; NR; remark: listed apart in the source
[25] = substrate: CO/N=C(\C(=O)N[C@@H]1C(=O)N2C(C(=O)O)=C(COC(C)=O)CS[C@H]12)c1csc(N)n1; conditions: Shouchella clausii; NR; remark: listed apart in the source
[26] = substrate: CCN1CCN(C(=O)N[C@@H](C(=O)N[C@@H]2C(=O)N3[C@@H]2SC(C)(C)[C@@H]3C(=O)O)c2ccccc2)C(=O)C1=O; conditions: Shouchella clausii; NR; remark: listed apart in the source
[27] = substrate: CC(C)(O/N=C(\C(=O)N[C@@H]1C(=O)N2C(C(=O)[O-])=C(C[n+]3ccccc3)CS[C@H]12)c1csc(N)n1)C(=O)O; conditions: Shouchella clausii; NR; remark: listed apart in the source
[28] = substrate: CC1(C)S[C@@H]2[C@H](NC(=O)[C@H](C(=O)O)c3ccsc3)C(=O)N2[C@H]1C(=O)O; conditions: Shouchella clausii; NR; remark: listed apart in the source
[29] = substrate: CC(=O)OCC1=C(C(=O)O)N2C(=O)[C@@H](NC(=O)Cc3cccs3)[C@H]2SC1; conditions: Shouchella clausii; NR; remark: listed apart in the source
[30] = substrate: CO/N=C(\C(=O)N[C@@H]1C(=O)N2C(C(=O)[O-])=C(C[N+]3(C)CCCC3)CS[C@H]12)c1csc(N)n1; experiment: (§2) Activity of Bacillus anthracis beta-lactamase Bla1
[31] = substrate: CO/N=C(\C(=O)N[C@@H]1C(=O)N2C(C(=O)O)=C(COC(C)=O)CS[C@H]12)c1csc(N)n1; experiment: as §2
[32] = substrate: CC(C)(O/N=C(\C(=O)N[C@@H]1C(=O)N2C(C(=O)[O-])=C(C[n+]3ccccc3)CS[C@H]12)c1csc(N)n1)C(=O)O; experiment: as §2
[33] = substrate: O=C(Cc1cccs1)N[C@@H]1C(=O)N2C(C(=O)[O-])=C(C[n+]3ccccc3)CS[C@H]12; experiment: Ratio of Kcat to Km for Bacillus anthracis beta-lactamase Bla1

B1: Beta-lactamase 1 (Bacillus cereus), P00809 (protein)
chain: MILKNKRMLKIGICVGILGLSITSLEAFTGESLQVEAKEKTGQVKHKNQATHKEFSQLEKKFDARLGVYAIDTGTNQTISYRPNERFAFASTYKALAAGVLLQQNSIDSLNEVITYTKEDLVDYSPVTEKHVDTGMKLGEIAEAAVRSSDNTAGNILFNKIGGPKGYEKALRHMGDRITMSNRFETELNEAIPGDIRDTSTAKAIATNLKAFTVGNALPAEKRKILTEWMKGNATGDKLIRAGIPTDWVVGDKSGAGSYGTRNDIAVVWPPNSAPIIVLISSKDEKEAIYNDQLIAEATKVIVKGS
Which Km [1] does the source give for B1 here?
Its Km is 65 µM.

And the kcat [1]?
Its kcat is 2200 s⁻¹.

And the kcat [2]?
The kcat was 0.2 s⁻¹.

B2: Beta-lactamase (Bacillus clausii), A8RR46 (protein)
chain: MKRSFFMLKTKITSSILVGACLLIGCSNGNEQPVSNEPEPEESVETGEAVFKALEEEYAARLGVFALDTGTGQTVSYRSDERFTYASAHKPLAVAVLLQQKSIEELEQLITYSADDLVNYNPITENHVETGMTLRELSDASIRYSDNTAANFIFDEIGGPEGFKEGLRAIGDTVTEPERIEPELNHVEPGEIQDTSTPEALAKSLQEFALGEALPADKQELLIDWLIGNTTGDALIRAGVPEGWEVGDKTGAGSYGTRNDIAILWPPEKEPIILAVLSSKDEKDAEYDDELIAKATEEVINLLAQTE
What does the source list for B2?
Km [3]: > 1000 µM; kcat [3]: > 40 s⁻¹; Km [4]: 45 µM; kcat [4]: 115 s⁻¹; Km [5]: 950 µM; kcat [5]: 30 s⁻¹; Km [6]: 22 µM; kcat [6]: 85 s⁻¹; kcat [7]: < 0.3 s⁻¹; Km [8]: 12 µM; kcat [8]: 97 s⁻¹; Km [9]: 136 µM; kcat [9]: 95 s⁻¹; Km [10]: < 0.01 µM; kcat [10]: < 0.01 s⁻¹; Km [11]: 105 µM; kcat [11]: 15 s⁻¹; Km [12]: 790 µM; kcat [12]: 22 s⁻¹; Km [13]: 21 µM; kcat [13]: 38 s⁻¹; kcat [14]: < 0.01 s⁻¹; Km [15]: 1000 µM; kcat [15]: > 3.3 s⁻¹; Km [16]: 6 µM; kcat [16]: 5 s⁻¹; Km [17]: 15 µM; kcat [17]: 22 s⁻¹; kcat/Km [18]: < 40000 M⁻¹ s⁻¹; kcat/Km [19]: 2.5e+06 M⁻¹ s⁻¹; kcat/Km [20]: 30000 M⁻¹ s⁻¹; kcat/Km [21]: 4e+06 M⁻¹ s⁻¹; kcat/Km [22]: 8e+06 M⁻¹ s⁻¹; kcat/Km [23]: 1e+06 M⁻¹ s⁻¹; kcat/Km [24]: 100000 M⁻¹ s⁻¹; kcat/Km [25]: 30000 M⁻¹ s⁻¹; kcat/Km [26]: 2e+06 M⁻¹ s⁻¹; kcat/Km [27]: < 3000 M⁻¹ s⁻¹; kcat/Km [28]: 1e+06 M⁻¹ s⁻¹; kcat/Km [29]: 1.5e+06 M⁻¹ s⁻¹

B3: Beta-lactamase (Bacillus anthracis), Q93T42 (protein)
chain: MIVLKNKKMLKIGMCVGILGLSITSLVTFTGGALQVEAKEKTGQVKHKNQATHKEFSQLEKKFDARLGVYAIDTGTNQTIAYRPNERFAFASTYKALAAGVLLQQNSTKKLDEVITYTKEDLVDYSPVTEKHVDTGMTLGEIAEAAVRYSDNTAGNILFHKIGGPKGYEKALRQMGDRVTMSDRFETELNEAIPGDIRDTSTAKAIATNLKAFTAGNALPNHKRNILTKWMKGNATGDKLIRAGVPTNWVVADKSGAGSYGTRNDIAIVWPPNRAPIIIAILSSKDEKGATYDNQLIAEAAEVIVNAFR
How did the kcat [30] turn out when B3 was run?
The kcat was under 0.2 s⁻¹.

What about the kcat [31] of the same protein?
The kcat was under 0.2 s⁻¹.

And the kcat [32]?
Its kcat is under 0.2 s⁻¹.

And the kcat/Km [33]?
Its kcat/Km is 1.1e+06 M⁻¹ s⁻¹.
